These results are taken from paper PMC7912279 (2021).

The target of assay [1] is T1, gastrin-releasing peptide receptor (Homo sapiens, UniProt P30550). As to the kind of experiment: LigandTracer on PC-3 cells (1:2 model, KD1).
In assay [2] the target is T1, gastrin-releasing peptide receptor. As to the kind of experiment: LigandTracer on PC-3 cells (1:2 model, KD2).

T1 sequence (P30550 whole entry): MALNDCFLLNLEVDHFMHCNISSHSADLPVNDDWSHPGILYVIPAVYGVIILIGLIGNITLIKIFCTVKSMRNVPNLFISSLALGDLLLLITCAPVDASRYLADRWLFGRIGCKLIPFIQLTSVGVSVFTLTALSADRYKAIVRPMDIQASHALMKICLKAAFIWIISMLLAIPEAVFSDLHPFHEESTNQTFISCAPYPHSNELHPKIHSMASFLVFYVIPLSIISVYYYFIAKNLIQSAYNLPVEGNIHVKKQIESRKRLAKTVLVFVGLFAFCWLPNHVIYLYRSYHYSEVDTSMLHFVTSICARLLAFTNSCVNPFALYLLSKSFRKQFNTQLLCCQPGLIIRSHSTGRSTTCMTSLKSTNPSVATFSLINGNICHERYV

B1: maSSS-PEG2-RM26 (peptide)
chain: SSSFQWAVGHL
modifications: 99mTc, mercaptoacetyl-Ser-Ser-Ser-PEG2-D-Phe-Gln-Trp-Ala-Val-Gly-His-Sta-Leu-NH2
Take B1: the results for the Kd in assay [1] and in assay [2] were 0.061 nM and 1.2 nM, respectively.

B2: maSES-PEG2-RM26 (peptide)
chain: SESFQWAVGHL
modifications: 99mTc, mercaptoacetyl-Ser-Glu-Ser-PEG2-D-Phe-Gln-Trp-Ala-Val-Gly-His-Sta-Leu-NH2
As to B2, the Kd came out at 0.849 nM in assay [1] and 1.4 nM in assay [2].

The term Kd denotes the concentration at which binding is half-saturated.
